# Reference: the supplement of paper PMC9112550, “Optimization of the antimicrobial peptide Bac7 by deep mutational scanning” (BMC Biology, 2022)
# Test system: Escherichia coli TOP10
# Test: shrunken log2 fold change of peptide-encoding DNA abundance (4.5 h post-induction vs induction); higher = less antimicrobial activity (less host growth inhibition)
# Conditions: time post-induction: 4.5 h; library: site-saturation at positions 5, 18, 19, 20
# 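Also: peptides expressed intracellularly from a pBAD plasmid library in pooled LB shake-flask culture, induced with 0.3% L-arabinose, DNA abundance read by NGS, three biological replicates, DESeq2 with apeglm shrinkage.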
row,Sequence,shrunken log2 fold change
1,RRIRNRPPRLPRPRPRPCHGPRP,-0.00208
2,RRIRNRPPRLPRPRPRPCHKPRP,-0.00663
3,RRIRNRPPRLPRPRPRPCIFPRP,-0.697
4,RRIRNRPPRLPRPRPRPCIGPRP,0.00845
5,RRIRNRPPRLPRPRPRPCMFPRP,-0.68
6,RRIRNRPPRLPRPRPRPCMSPRP,-0.108
7,RRIRNRPPRLPRPRPRPCPDPRP,-0.0721
8,RRIRNRPPRLPRPRPRPCRFPRP,-0.0153
9,RRIRNRPPRLPRPRPRPCRNPRP,-0.437
10,RRIRNRPPRLPRPRPRPCRQPRP,-0.065
11,RRIRNRPPRLPRPRPRPCSQPRP,-0.0135
12,RRIRNRPPRLPRPRPRPCTVPRP,-0.8
13,RRIRNRPPRLPRPRPRPCVPPRP,-0.00911
14,RRIRNRPPRLPRPRPRPCWKPRP,-0.0657
15,RRIRNRPPRLPRPRPRPCWWPRP,0.0782
16,RRIRNRPPRLPRPRPRPDACPRP,-0.0102
17,RRIRNRPPRLPRPRPRPDCAPRP,0.315
18,RRIRNRPPRLPRPRPRPDCDPRP,-0.132
19,RRIRNRPPRLPRPRPRPDCFPRP,-0.306
20,RRIRNRPPRLPRPRPRPDEQPRP,-0.0726
21,RRIRNRPPRLPRPRPRPDFEPRP,-0.0968
22,RRIRNRPPRLPRPRPRPDGVPRP,0.221
23,RRIRNRPPRLPRPRPRPDIPPRP,-0.588
24,RRIRNRPPRLPRPRPRPDKDPRP,-0.253
25,RRIRNRPPRLPRPRPRPDKPPRP,-0.14

row,Sequence,shrunken log2 fold change
1,RRIRNRPPRLPRPRPRPDLTPRP,-0.112
2,RRIRNRPPRLPRPRPRPDMEPRP,-0.0836
3,RRIRNRPPRLPRPRPRPDNKPRP,-1.35
4,RRIRNRPPRLPRPRPRPDNWPRP,-0.532
5,RRIRNRPPRLPRPRPRPDQKPRP,-0.000687
6,RRIRNRPPRLPRPRPRPDQYPRP,-0.337
7,RRIRNRPPRLPRPRPRPDRHPRP,0.0343
8,RRIRNRPPRLPRPRPRPDVYPRP,-0.0277
9,RRIRNRPPRLPRPRPRPDWMPRP,-0.0128
10,RRIRNRPPRLPRPRPRPDWTPRP,-0.0129
11,RRIRNRPPRLPRPRPRPECLPRP,0.254
12,RRIRNRPPRLPRPRPRPECRPRP,0.263
13,RRIRNRPPRLPRPRPRPEDLPRP,-0.00079
14,RRIRNRPPRLPRPRPRPEFRPRP,-0.107
15,RRIRNRPPRLPRPRPRPEGEPRP,0.481
16,RRIRNRPPRLPRPRPRPEGFPRP,0.0136
17,RRIRNRPPRLPRPRPRPEHLPRP,0.0408
18,RRIRNRPPRLPRPRPRPEIHPRP,0.116
19,RRIRNRPPRLPRPRPRPEILPRP,-0.0178
20,RRIRNRPPRLPRPRPRPEKKPRP,-0.113
21,RRIRNRPPRLPRPRPRPEKMPRP,-0.00664
22,RRIRNRPPRLPRPRPRPEKWPRP,-0.0101
23,RRIRNRPPRLPRPRPRPELDPRP,0.0611
24,RRIRNRPPRLPRPRPRPELWPRP,0.604
25,RRIRNRPPRLPRPRPRPELYPRP,0.23

row,Sequence,shrunken log2 fold change
1,RRIRNRPPRLPRPRPRPEMCPRP,0.00911
2,RRIRNRPPRLPRPRPRPEMLPRP,0.0345
3,RRIRNRPPRLPRPRPRPEMMPRP,0.317
4,RRIRNRPPRLPRPRPRPEMVPRP,-0.0225
5,RRIRNRPPRLPRPRPRPENEPRP,-0.00386
6,RRIRNRPPRLPRPRPRPENPPRP,0.0192
7,RRIRNRPPRLPRPRPRPEPCPRP,-0.0302
8,RRIRNRPPRLPRPRPRPEPVPRP,-0.0258
9,RRIRNRPPRLPRPRPRPEQIPRP,-0.0196
10,RRIRNRPPRLPRPRPRPEQKPRP,-0.00208
11,RRIRNRPPRLPRPRPRPEQRPRP,0.00383
12,RRIRNRPPRLPRPRPRPERCPRP,0.0334
13,RRIRNRPPRLPRPRPRPERMPRP,-0.0351
14,RRIRNRPPRLPRPRPRPETQPRP,0.162
15,RRIRNRPPRLPRPRPRPEVRPRP,0.292
16,RRIRNRPPRLPRPRPRPEWLPRP,0.226
17,RRIRNRPPRLPRPRPRPEYQPRP,0.00318
18,RRIRNRPPRLPRPRPRPFCGPRP,-0.108
19,RRIRNRPPRLPRPRPRPFCKPRP,-0.835
20,RRIRNRPPRLPRPRPRPFFIPRP,-0.586
21,RRIRNRPPRLPRPRPRPFGCPRP,-0.128
22,RRIRNRPPRLPRPRPRPFGKPRP,-0.0788
23,RRIRNRPPRLPRPRPRPFGYPRP,-0.377
24,RRIRNRPPRLPRPRPRPFHEPRP,-0.00822
25,RRIRNRPPRLPRPRPRPFICPRP,-0.38

row,Sequence,shrunken log2 fold change
1,RRIRNRPPRLPRPRPRPFKEPRP,-0.161
2,RRIRNRPPRLPRPRPRPFKMPRP,-0.258
3,RRIRNRPPRLPRPRPRPFKQPRP,-0.0135
4,RRIRNRPPRLPRPRPRPFLWPRP,-0.199
5,RRIRNRPPRLPRPRPRPFMAPRP,-0.513
6,RRIRNRPPRLPRPRPRPFNFPRP,0.125
7,RRIRNRPPRLPRPRPRPFNRPRP,-0.111
8,RRIRNRPPRLPRPRPRPFPDPRP,-0.00602
9,RRIRNRPPRLPRPRPRPFPHPRP,-0.0462
10,RRIRNRPPRLPRPRPRPFPQPRP,-0.186
11,RRIRNRPPRLPRPRPRPFRVPRP,-0.17
12,RRIRNRPPRLPRPRPRPFRWPRP,0.0512
13,RRIRNRPPRLPRPRPRPFRYPRP,-0.591
14,RRIRNRPPRLPRPRPRPFSCPRP,-0.03
15,RRIRNRPPRLPRPRPRPFSNPRP,-0.214
16,RRIRNRPPRLPRPRPRPFTAPRP,0.613
17,RRIRNRPPRLPRPRPRPFTWPRP,-0.62
18,RRIRNRPPRLPRPRPRPFWGPRP,-0.157
19,RRIRNRPPRLPRPRPRPFYLPRP,-0.0716
20,RRIRNRPPRLPRPRPRPGACPRP,0.0367
21,RRIRNRPPRLPRPRPRPGCFPRP,0.126
22,RRIRNRPPRLPRPRPRPGCKPRP,-0.00214
23,RRIRNRPPRLPRPRPRPGCMPRP,0.0522
24,RRIRNRPPRLPRPRPRPGCVPRP,0.634
25,RRIRNRPPRLPRPRPRPGEDPRP,-0.376

row,Sequence,shrunken log2 fold change
1,RRIRNRPPRLPRPRPRPGEVPRP,-0.121
2,RRIRNRPPRLPRPRPRPGFSPRP,0.0167
3,RRIRNRPPRLPRPRPRPGGKPRP,-0.101
4,RRIRNRPPRLPRPRPRPGIGPRP,0.239
5,RRIRNRPPRLPRPRPRPGINPRP,-0.253
6,RRIRNRPPRLPRPRPRPGIRPRP,0.0989
7,RRIRNRPPRLPRPRPRPGLVPRP,0.171
8,RRIRNRPPRLPRPRPRPGNIPRP,-0.161
9,RRIRNRPPRLPRPRPRPGNTPRP,-0.896
10,RRIRNRPPRLPRPRPRPGPLPRP,0.0198
11,RRIRNRPPRLPRPRPRPGRQPRP,0.0171
12,RRIRNRPPRLPRPRPRPGVCPRP,0.241
13,RRIRNRPPRLPRPRPRPGWDPRP,-0.00506
14,RRIRNRPPRLPRPRPRPGYDPRP,0.166
15,RRIRNRPPRLPRPRPRPGYMPRP,-0.281
16,RRIRNRPPRLPRPRPRPHAFPRP,-0.0636
17,RRIRNRPPRLPRPRPRPHAHPRP,-0.0247
18,RRIRNRPPRLPRPRPRPHAKPRP,-0.0658
19,RRIRNRPPRLPRPRPRPHAQPRP,-0.835
20,RRIRNRPPRLPRPRPRPHGHPRP,-0.0841
21,RRIRNRPPRLPRPRPRPHIEPRP,-0.195
22,RRIRNRPPRLPRPRPRPHIGPRP,-0.0161
23,RRIRNRPPRLPRPRPRPHNAPRP,-0.175
24,RRIRNRPPRLPRPRPRPHPHPRP,-0.576
25,RRIRNRPPRLPRPRPRPHQGPRP,-0.0861

row,Sequence,shrunken log2 fold change
1,RRIRNRPPRLPRPRPRPHQSPRP,-0.104
2,RRIRNRPPRLPRPRPRPHRKPRP,0.0299
3,RRIRNRPPRLPRPRPRPHSAPRP,-0.0468
4,RRIRNRPPRLPRPRPRPHSHPRP,-0.472
5,RRIRNRPPRLPRPRPRPHSIPRP,-0.209
6,RRIRNRPPRLPRPRPRPHSMPRP,-0.027
7,RRIRNRPPRLPRPRPRPHTGPRP,-0.313
8,RRIRNRPPRLPRPRPRPHTSPRP,-0.268
9,RRIRNRPPRLPRPRPRPHTTPRP,-0.235
10,RRIRNRPPRLPRPRPRPHTWPRP,-0.296
11,RRIRNRPPRLPRPRPRPHVPPRP,-0.528
12,RRIRNRPPRLPRPRPRPHYYPRP,-0.356
13,RRIRNRPPRLPRPRPRPIALPRP,-0.0133
14,RRIRNRPPRLPRPRPRPICIPRP,-0.531
15,RRIRNRPPRLPRPRPRPIDFPRP,-0.413
16,RRIRNRPPRLPRPRPRPIEGPRP,-0.0908
17,RRIRNRPPRLPRPRPRPIENPRP,0.0211
18,RRIRNRPPRLPRPRPRPIESPRP,-0.00107
19,RRIRNRPPRLPRPRPRPIFEPRP,0.0552
20,RRIRNRPPRLPRPRPRPIFNPRP,-0.302
21,RRIRNRPPRLPRPRPRPIGPPRP,-0.181
22,RRIRNRPPRLPRPRPRPIGSPRP,-0.00277
23,RRIRNRPPRLPRPRPRPIHWPRP,0.0944
24,RRIRNRPPRLPRPRPRPIICPRP,-0.0922
25,RRIRNRPPRLPRPRPRPIKHPRP,-0.724
